Results taken from the supplement of paper PMC9170038.

Test system: K4 kissing-loop RNA reporter
Experiment: apparent KD of K4 kissing-loop reporter; higher = weaker reporter binding
Conditions: Eterna round: R107; input ligand: none
Experimental: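 RNA-MaP round R107: designed RNA switches with theophylline, tryptophan, arginine or FMN aptamers are transcribed on-chip within common flanks. They are titrated with a labelled K4 kissing-loop RNA reporter in RNA-MaP buffer (100 mM Tris pH 7.5, 80 mM KCl, 4 mM MgCl2), without ligand or with the indicated ligand. Median apparent KD per design.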
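Note: bound reporter read as fluorescence of individual clusters on recovered sequencing chips by microscopy, with normalized cluster intensities fitted with a binding model.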

Row | Sequence | apparent KD of K4 kissing-loop reporter [nM]
1 | UUACUACCCAGUGAUGUUGGGUAGCGGCCACGAGGACCGGUACGGCCGCCACUCGAGGUUCGGGAGUGAUGUUCCUACUAUUUGG [Same state Tryptophan A GF 6] | 360
2 | AGGAUCACGUCAGUGAUGUUGACAAGAGAUACCAGAGACGAAAGUCUCCCUUGGCAGCUCACUGUGAUCCGUGACAAAGGUCACA [Omei KL hio A SS C v1] | 98.3
3 | GGCGCUGUCUGUGCCGCCCUCCUCGUCCCUCGAGGACCGGUACGGCCGCCACUCGAGUGAUGUUCGGGUAGCCCUCCCUGCCAGC [BDazzled - #22 Exc. Tryptophan A] | 492
4 | UGAUACCAGACUGAUACCAGCAAGUGAUGUUUGUUGAUCUAUGCAGUCAAAGACUGCUCUUGCCCUUGGCAGCAGUCUGGUAUCU [TheoBX 28 #SwitchBubble #StaticStem] | 1040
5 | UGAUUGCCAGUGAUGUUGGCAGGGUCUGAAGGAGCGCGUGAAAACGCAGGUAGGUCGCAGUAUGGUGCCAAUUGAUCGAAAGAUC [KL-XArg-A3] | 223
6 | AGACUACCACACUGUCAAUAGACAGUGUACUAGGAUAUGCUGAUAAGCAGAAGGAGUGAUGUUCCAAGGUAGUCAAUAAAAUAAU [FmnAX 13 U28+A66] | 206
7 | GUAGGAUGAGGAGGAGGAUGAAUUACUGAAGGAGCGCAGAGAAAUGCAGGUAGGUCGCGGUAAAGAAGUAUAGUGAUGUUAUAUC [#09 K4 Arginine A Same State] | 657
8 | UCCCGAGUGAUGUUUGGCUGAUGGAGUGAUACCAGUCCCUAGACUGACCCUUGGCAGCACGACUUGUACCAGGCGGAUCACCCUG [theeternabot_exclusion_KL_Theo_A_5] | 423
9 | GGUUUCUGAAGUGAUGUUUCAGGAUGACACAAGGAUAUAUAUGGCGAUAGAAGGUGUGCGUCGCAUGACGAACGACGUCAGCUUC [theeternabot_exclusion_KL_FMN_A_37] | 120
10 | AUUUUGGUUUAGAGUGAUGUUCCUUGUAUUCGAGGACCGGUACGGCCGCCACUCGAAUAGAAAAGAAAAGAAAUGUGUGAUGUUU [BDazzled - #5 SS Tryptophan A] | 900
11 | AAUAGGGAUAGUGAUGUUAUCCCUUAUGAUACCAGUGCCAUCGGACACCCUUGGCAGCAUACGGGCAGUGAUGUUGUCCUUGGUG [Exclusion Theophylline A GF 16] | 101
12 | AGUACAACUGCGGCCGCCACUCAACGCAGAUCAAAGAUCUGCAUUCACUCAGUGAUGUUGAGUGAGAGGACCGGGCAGUUGUACA [Omei KL Tryp B SS B v3] | 742
13 | CAUACGCAUGGAGGAUAUGAGAUUACUCAUAUUACCCUGUAACAGGUAUCUCAGUGAUGUUGAGACUCAGAAGGCCAUGUGUAUG [Ex FMN B 22] | 415
14 | UUUUAUAACCGAAGGAGCGCGUGGGCGCAGUGAUGUUGCGCCCGACAUCACUUCAACUUAACGCAGGUAGGUCGCGGUUUUAAUA [Arginine B (Excl) V2] | 159
15 | CAUUCGAAAUGCAGUGAUGUUGCAACUGAUACCAGUAUCGAAAGAUACCCUUGGCAGCGGAAAACCGCUACGUUUUUUUUGAAUG [Ex Theophylline A K4 24] | 312
16 | GCAUCCGAUGCAGGAUAUAGAUGAACGAGUGAUGUUUGGAAUUUAUGUCCAAAGCCUACGAUCAAACUAGAAGGGCAUCGGAUGC | 161
17 | CCGGGCGGCCGAAGGAGCGGGCGGACCCGAGUGAUGUUCGGGUGGCCCGUGAGGGCCGGUGCCCAGGUAGGUCGCGGAUCCGCCC [#2 Same State - Arginine B Attempt #3 (HarryS)] | 140
18 | ACGCGCGCGAGUGAUGUUCGGAGCGGCUGGCAGGAUAUGUAGCAAUGCAGAAGGGUCGUGGCGCUCCCUCCUGAAGGAGGGAGCG [#2 Exclusion - FMN A Attempt #25 (HarryS)] | 351
19 | GAAAGAAAGAAUGAUACCAGACACCCGAGUGAUGUUCGGAGCAGAGUGAUGUUCUAAUAAGUCCCUUGGCAGCAUAAAAGAAAAG [Same State Theophylline B GF 1] | 322
20 | UAAUUUAUGUCUUUAAUAUAAUUUUCAGAUACCAGUGAUUAUUAACACCCUUGGCAGCUGUAUAGAGUGAUGUUCUUAUGCUUAA [JR_ExcTheophyA_Sub009] | 237
21 | UACAUAUCACUUUUUCUACAAUUAUUUAGUCAGGAUAUCGAUUAAACGAGAAGGGACAUUAUCAAGUGAUGUUUGAUAAUUCAAA [JR_Nu_SSFMNA_Sub028] | 118
22 | AGGUACAAAAGUACCGCUAGAUCCACGGAAGGAGCGCCGGAAACGGCAGGUAGGUCGCCGGGCAGUGAUGUUGCCGGAUCUAGCA [Omei KL Arginine A SS A v4] | 231
23 | GGUAGGGCAGCUGCGGAAACGCAGCAUAUCGAGGAUAUCGGGAAACCGAGAAGGCGAGUAGUGAUGUUACUGGUUUAGCCCUACC | 191

Same assay, conditions: Eterna round: R107; input ligand: theophylline 20 uM

Row | Sequence | apparent KD of K4 kissing-loop reporter [nM]
24 | AAAACCAAAAGCGAUACCAGCGCGGAGUGAUGUUCCGAGGAUCGGAGUGAUGUUCCGAAGCGCCCUUGGCAGCGCAAAAGCGCAA [Exclusion Theophylline B GF 7] | 196
25 | ACGCUGGUGAAUAACACUAGCGAAAAUUCGCGAGGACCGGUACGGCCGCCACUCGCUAACUGCGAGUGAUGUUCGAUAAUAAAAU [Mat - Mod of OpenEnded 3 - D8] | 169
26 | UGACUGGACUGAAGGAGCGCUAAAACUCCUAGUGAUGUUGGGAAAUAGAGACAAAGUCUCAAGCAGGUAGGUCGCAGUCUAGUCU [ArgBS 23 #SwitchBubble #StaticStem] | 197
27 | UAAUAAAUUCCAGCGAUAUCGCUCUUCGAAGGAGCGGGCGAAAGUCCAGGUAGGUCGCGGAGAGUGAUGUUCUUUGCGGCGCUGG [whbob_Ex_Arginine_A_2t134] | 407
28 | UAAUCCUAGUGAUAAUAAUCAAGUGGUGGGCGAGGACCGGUACGGCCGCCACUCGAAUAUGCAGUGAUGUUGUAAUCCGGAUAAU [Exclusion - Tryptophan A (Freestyle 6)] | 894
29 | AGGAUCACGUCAGUGAUGUUGACGAGAGAUACCAGAGACGAAAGUCUCCCUUGGCAGCUCAUCGUGAUCCGUGACAAAGGUCACA [Omei KL hio A SS C v4] | 278
30 | AUUCUGUUUUUAAUGUUUAUUGUAUAAUGGCAGGAUAUCGUAGAAGCGAGAAGGGCUUUUAUGCGUUAUGAGUGAUGUUUGUAGG [dhhyfvmullin] | 410
31 | UCUCGGGCCAGUGAUGUUGGCGGCAAGUGGCGAGGACCGGUACGGCCGCCACUCGGCGCAGCAGCGGAGUGAUGUUUCGUGAGUA [Same State Tryptophan A GF 16] | 387
32 | GCCGUAGAUUGAAGGAGCGGUAUGGGCGUUGGCUGAGUGAUGUUCAGGAAAAGUGGCUUCUACCAGGUAGGUCGCAAUCUACGGC | 139
33 | AAAAUAAACCAGUGAUGUUGGUGUGUAGAUACCAGCGACGAAAGUCGCCCUUGGCAGCUGUGGACGUACAAAAUAAGUACGUCCU [MatMod 23 - Jieux - Same State - Theophylline A] | 325
34 | ACGCGCGCGAGUGAUGUUCGGAGCGGCUGGCAGGAUAUGUAGCAAUGCAGAAGGGUCGUGGCUGCUGGUAGGAAACUACUGGCAG [#2 Exclusion - FMN A Attempt #4 (HarryS)] | 358
35 | AAAUUCUUUUUUUUAUAUAACGAUUCAGAAGGAGCGAGGUAGAACUCAGGUAGGUCGCUGAAUAUAAGACUAGUGAUGUUAGUAA [#01 K4 Arginine A Same State] | 238
36 | UUACUACCCAGUGAUGUUGGGUAGCGGCCACGAGGACCGGUACGGCCGCCACUCGAGGUUCGGGAGUGAUGUUCCUACUAUUUGG [Same state Tryptophan A GF 6] | 402
37 | AGGAUCACGUCAGUGAUGUUGACAAGAGAUACCAGAGACGAAAGUCUCCCUUGGCAGCUCACUGUGAUCCGUGACAAAGGUCACA [Omei KL hio A SS C v1] | 154
38 | GGCGCUGUCUGUGCCGCCCUCCUCGUCCCUCGAGGACCGGUACGGCCGCCACUCGAGUGAUGUUCGGGUAGCCCUCCCUGCCAGC [BDazzled - #22 Exc. Tryptophan A] | 382
39 | UGAUACCAGACUGAUACCAGCAAGUGAUGUUUGUUGAUCUAUGCAGUCAAAGACUGCUCUUGCCCUUGGCAGCAGUCUGGUAUCU [TheoBX 28 #SwitchBubble #StaticStem] | 409
40 | UGAUUGCCAGUGAUGUUGGCAGGGUCUGAAGGAGCGCGUGAAAACGCAGGUAGGUCGCAGUAUGGUGCCAAUUGAUCGAAAGAUC [KL-XArg-A3] | 210
41 | AGACUACCACACUGUCAAUAGACAGUGUACUAGGAUAUGCUGAUAAGCAGAAGGAGUGAUGUUCCAAGGUAGUCAAUAAAAUAAU [FmnAX 13 U28+A66] | 291
42 | GUAGGAUGAGGAGGAGGAUGAAUUACUGAAGGAGCGCAGAGAAAUGCAGGUAGGUCGCGGUAAAGAAGUAUAGUGAUGUUAUAUC [#09 K4 Arginine A Same State] | 526
43 | UCCCGAGUGAUGUUUGGCUGAUGGAGUGAUACCAGUCCCUAGACUGACCCUUGGCAGCACGACUUGUACCAGGCGGAUCACCCUG [theeternabot_exclusion_KL_Theo_A_5] | 431
44 | GGUUUCUGAAGUGAUGUUUCAGGAUGACACAAGGAUAUAUAUGGCGAUAGAAGGUGUGCGUCGCAUGACGAACGACGUCAGCUUC [theeternabot_exclusion_KL_FMN_A_37] | 123
45 | AUUUUGGUUUAGAGUGAUGUUCCUUGUAUUCGAGGACCGGUACGGCCGCCACUCGAAUAGAAAAGAAAAGAAAUGUGUGAUGUUU [BDazzled - #5 SS Tryptophan A] | 764
46 | AAUAGGGAUAGUGAUGUUAUCCCUUAUGAUACCAGUGCCAUCGGACACCCUUGGCAGCAUACGGGCAGUGAUGUUGUCCUUGGUG [Exclusion Theophylline A GF 16] | 94.8
